Where a chain is given by its changes, count along the chain named. In names and notes the source's numbering stands. Each block holds one molecule with its values, some of them ahead of it.
What was measured:
[1] = biological target: T1, L-PGDS mutant Cys^89,186Ala (Mus musculus, UniProt O09114, C186A/C89A); assay: Binding of prostaglandins to L-PGDS by surface plasmon resonance (BiaCore 2000); details: for binding to L-PGDS (in words): 10 µM (Figure 7)
T1 construct: GST (N, cleaved yes); made in house; host or cells: Escherichia coli DH5α
T1 sequence (O09114 25-189 C89A/C186A): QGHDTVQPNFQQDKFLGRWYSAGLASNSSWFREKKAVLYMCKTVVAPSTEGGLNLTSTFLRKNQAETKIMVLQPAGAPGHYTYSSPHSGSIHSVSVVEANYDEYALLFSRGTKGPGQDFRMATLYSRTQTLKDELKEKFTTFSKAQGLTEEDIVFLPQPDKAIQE
Experimental: L-PGDS can act as a PGD2 transporter protein. […] That is, L-PGDS act as a PGD2 synthesis enzyme coupled with COX in cells and thereafter as an extracellular transporter of PGD2.
The binding of PGD2, PGE2 or PGF2α to L-PGDS was analyzed with BiaCore 2000 system (BiaCore, Uppsala, Sweden) using the surface plasmon resonance method. L-PGDS mutant Cys^89,186Ala was immobilized on CM5 sensor chip (BIAcore AB) coated with carboxymethyldextran. Binding assay was carried out at a constant flow rate of 30µ l/min. in the concentration range of 0.1 to 10 µ M in both the binding phase and the dissociation phase. After each assay, the sensor chip surface was regenerated with 15 µ l of 1.5 M urea. Rate constant values were calculated using analysis soft wear BIA Evaluation 3.0 soft wear after subtracting control surface (bovine serum albumin) using Langmuir 1: 1 binding model by four independent experiments.

H-PGDS = H-PGDS (Homo sapiens, UniProt O60760); assay: Affinity of H-PGDS to PGD2; assay type: binding
Sequence of H-PGDS (O60760 whole entry, species assumed): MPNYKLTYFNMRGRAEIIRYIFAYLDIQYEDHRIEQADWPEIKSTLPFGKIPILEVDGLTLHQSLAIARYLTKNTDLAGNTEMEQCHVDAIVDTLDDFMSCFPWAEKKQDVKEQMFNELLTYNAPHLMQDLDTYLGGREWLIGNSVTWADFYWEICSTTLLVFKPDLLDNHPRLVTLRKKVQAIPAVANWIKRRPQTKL

[2] = biological target: hematopoietic PGD Synthase (H-PGDS) (Homo sapiens, UniProt O60760); assay: Inhibition of hematopoietic PGD synthase enzyme activity ([1-14C]PGH2 to PGD2, thin layer chromatography); assay type: biochemical; details: 3 to 300 µM; PGH2 40 µM, 0.1 mM GSH, 25°C, 30 seconds
Sequence of hematopoietic PGD Synthase (H-PGDS) (O60760 whole entry, species assumed): as above
Experimental: In the measurement of hematopoietic PGD Synthase (H-PGDS), [1-^14C] PGH2 (40µM) as substrate is reacted in the presence of 0.1 M Tris-HCl (pH 8.0) and 0.1 mM GSH (reduced glutathione) at 25°C for 30 seconds.
After the completion of the reaction, the reaction liquid was subjected to thin layer chromatography to isolate and quantify PGD2 to calculate enzyme activity.

[3] = test system: human cerebellum medulloblast (TE671) expressing L-PGDS; assay: Inhibition of A23187-stimulated PGD2 production from cells expressing L-PGDS (EIA); assay type: cell-based; details: TE-671 cells, A23187 5 µM, compound added 15 minutes before stimulation, medium recovered 15 minutes after
Experimental: TE-671 is seeded on microplate at the density of 1×10^7. The cells were stimulated by A231875 (5 µ M) to cause PGD2 production. […] The culture medium was recovered 15 minutes after A23187 stimulation to quantify the PGD2 concentration in the culture medium by enzyme immunoassay (EIA).

L-PGDS = biological target: T2, L-PGDS (Mus musculus, UniProt O09114); assay: Binding of retinoids to L-PGDS
T2 sequence (O09114 25-189): T1 sequence (O09114 25-189 C89A/C186A) with A65C, A162C

[4] = substrate: [H][C@]12C[C@]([H])(OO1)[C@H](C/C=C\CCCC(=O)O)[C@H]2/C=C/[C@@H](O)CCCCC; assay: PGDS activity kinetics of L-PGDS mutants; assay type: biochemical, mouse; details: other: Km for PGH2, pH=8.0, 25.0 °C
Excerpt: Since the preparation of recombinant protein having the same PGDS activity as purified wild-type enzyme is easy, Cys^89,186Ala construct was used for this purpose. Various mutants were expressed, purified to homogeneity and L-PGDS activities were compared at pH 8, 9 and 10 (Figure 8) .
After a candidate compound of L-PGDS inhibitor is selected, it is preferably contacted with the enzyme in the presence of the substrate (prostaglandin H2) to confirm an ability of the compound to inhibit the enzyme (see, for example, Shimizu, t., Yamamoto, S., and Hayaishi O. (1979), Purification and Properties of prostaglandin D synthase from rat brain, J. Biol. Chem., 254:5222-5228). The enzyme activity can be measured, for example, as follows:
The substrate [1-^14C]prostaglandin (PG)H2 is synthesized by reacting [1^-14C]arachidonic acid with cyclooxygenase. Since PGH2 is easily decomposed in an aqueous solution (half life: about 5 minutes), it is evaporated to dryness and stored at low temperature(-80°C). The enzyme reaction is performed by injecting 1 µL of PGH2 solution(acetone or non-volatile diethylenediglycohol solution) with a microsyringe to 49 µ L of 0.1 M phosphate buffer (pH8.0) containing 1 mM dithiothreitol (DTT) and the enzyme. After the reaction at 25 °C for 30 to 60 seconds, the reaction is quenched by the addition of 300 µL of ice-cold mixed solution of ether/methanol/0.1 M citric acid (30:4:1 v/v/v) followed by extraction the substrate and reaction product under acidic condition into ether layer. Subsequently, anhydrous sodium sulfate was added to dehydrate it. An aliquot of organic layer (about 50 µ L) is coated on silica gel thin layer in a low temperature room (4°C) and subjected to silica gel thin layer chromatography in a freezer (-20 °C) (developing solvent: ether/methanol/acetic acid (90:2:1 v/v/v) . After the development, radioactivity of PGD2 fraction and fraction other than it are measured to calculate an enzyme activity based on the conversion ratio to PGD2.
The site-specific mutagenesis was performed using a Quick change site-directed mutagenesis kit (Stratgene, Heiderberg, Germany). The DNA sequence was confirmed by the determination of cycle sequencing by a SequiTherm cycle sequencing kit (Epicentre Technologies, Madison, WI) followed by LI-COR model 4000L automatic DNA sequencer (LI-COR Inc., Lincoln, NE)

- binding to L-PGDS (in words) [1]: Neither PGE2 nor PGF2α is bound
Molecule: CCCCC[C@H](O)/C=C/[C@@H]1[C@@H](C/C=C\CCCC(=O)O)[C@@H](O)C[C@H]1O [PGF2α]

- affinity of H-PGDS to PGD2 (in words) (H-PGDS): does not show high affinity
- kon ([1]; Langmuir 1:1 binding model): 1.24x10^3 ± 37 M^-1sec^-1
- Kd ([1]; Langmuir 1:1 binding model, four independent experiments): 0.0894 ± 0.0034 µM
Molecule: CCCCC[C@H](O)/C=C/[C@H]1C(=O)C[C@H](O)[C@@H]1C/C=C\CCCC(=O)O [PGD2]

- binding to L-PGDS (in words) [1]: Neither PGE2 nor PGF2α is bound
Molecule: CCCCC[C@H](O)/C=C/[C@H]1[C@H](O)CC(=O)[C@@H]1C/C=C\CCCC(=O)O [PGE2]

- inhibition of H-PGDS (in words) [2]: does not inhibit
Molecule: C1=Cc2ccccc2C(=C2CCN(CCCCc3nn[nH]n3)CC2)c2ccccc21 [AT-56, 4-dibenzo(a,d)cyclohepten-5-ylidene-1-(4-(2H-tetrazole-5-yl)butyl)piperidine]
- inhibition of PGD2 production by A23187 stimulation (in words) [3]: dose-dependently inhibited

- binding to L-PGDS (in words) (L-PGDS): binds
Molecule: CC1=C(/C=C/C(C)=C/C=C/C(C)=C/C=O)C(C)(C)CCC1 [retinal]

B1: mouse L-PGDS, Wild Type(C65), Cys^89,186Ala construct, SEQ ID NO:1 (Mus musculus; C186A/C89A) (protein)
chain: T1 sequence (O09114 25-189 C89A/C186A)
- Km [4]: 13 µM
- kcat/Km [4]: 2.38 µM^-1Min^-1

B2: mouse L-PGDS mutant R85E (Arg^85Glu) in Cys^89,186Ala construct (Mus musculus; C186A/C89A/R85E) (protein)
chain: T1 sequence (O09114 25-189 C89A/C186A) with R61E
- Km [4]: 7 µM
- kcat/Km [4]: 4.86 µM^-1Min^-1

B3: mouse L-PGDS mutant S81A (Ser^81Ala) in Cys^89,186Ala construct (Mus musculus; C186A/C89A/S81A) (protein)
chain: T1 sequence (O09114 25-189 C89A/C186A) with S57A
- Km [4]: 12 µM
- kcat/Km [4]: 0.50 µM^-1Min^-1

B4: mouse L-PGDS mutant T147A (Thr^147Ala) in Cys^89,186Ala construct (Mus musculus; C186A/C89A/T147A) (protein)
chain: T1 sequence (O09114 25-189 C89A/C186A) with T123A
- Km [4]: 19 µM
- kcat/Km [4]: 0.95 µM^-1Min^-1

B5: mouse L-PGDS mutant K92E (Lys^92Glu) in Cys^89,186Ala construct (Mus musculus; C186A/C89A/K92E) (protein)
chain: T1 sequence (O09114 25-189 C89A/C186A) with K68E
- Km [4]: 14 µM
- kcat/Km [4]: 5.71 µM^-1Min^-1

B6: mouse L-PGDS mutant S45A (Ser^45Ala) in Cys^89,186Ala construct (Mus musculus; C186A/C89A/S45A) (protein)
chain: T1 sequence (O09114 25-189 C89A/C186A) with S21A
- Km [4]: 11 µM

B7: mouse L-PGDS mutant F83I (Phe^83Ile) in Cys^89,186Ala construct (Mus musculus; C186A/C89A/F83I) (protein)
chain: T1 sequence (O09114 25-189 C89A/C186A) with F59I
- Km [4]: 15 µM
- kcat/Km [4]: 4.47 µM^-1Min^-1

Reference: patent EP1574569A1, “THREE-DIMENSIONAL STRUCTURE OF LIPOCALIN-TYPE PROSTAGLANDIN D SYNTHASE AND UTILIZATION OF THE SAME” (RIKEN, priority 2002, dated 2004)
